Test: soluble on expression in E. coli; label from the status in PepcDB or PDB records

**Q.** For “MDQQEPSNNVDTSSILSDDGMETQEQSSFVTATIDLTVDDYDETEIQEILDNGKAEEGTDEDSDLVEGILNANSDVQALLDAPSEQVAQALNSFFGNESEQEAVAAQRRVDAEKTAKDEAELKQQEEAEDLIIEDSIVKTDEEKQAVRRLKINEFLSWFTRLLPEQFKNFEFTNPNYLTESISDSPVVNVDKCKEIVKSFKESESLEGLSQKYELIDEDVLVAAICIGVLDTNNEEDVDFNVLCDDRIDDWSIEKCVTFLDYPNTGLNSKNGPLRFMQFTVTSPASAILMLTLIRLREEGHPCRLDFDSNPTDDLLLNFDQVEFSNNIIDTAVKYWDDQKENGAQDKIGRRVLIKLTTVLKNAVGSRNEIIQLVNEKIPDFDGTEAAVNESFTSDQRTEIINSRAIMETLKAEMKLAIAEAQKVYDTKTDFEKFFVLTVGDFCLARANPSDDAELTYAIVQDRVDAMTYKVKFIDTSQIRECNIRDLAMTTQGMYDPSLNTFGDVGLRVACRQVISSSQFGKKTIWLTGTAAGRRRAHRSDFLIFFDNGTDAYVSAPTMPGEPGYEVASEKKSVFSLKEMIAKMNAAQIAIMVGQPVGKEGNLDYFLTFHWIRQSHRSAYIRDFMKEFPEWPLLKMPVGMRICLYNSLVDRRKKMVTVIGTDRAFAIVRHEAPNPLAPGNRCTDFPCNDRNHQHIDEKIYRGSHRLEGAAHKKHMISTNNNLSQRRKDQLQSQFEPTDMIRSMPERNHQQVVKKKTTGTNQNVASTNDAKSKREIEIRKKNQFLFNKIIVPIPVLTPLENLKAHAQCGPDCLQKMDADPYEARFHRNSPIHTPLLCGWRRIMYTMSTGKKRGAVKKNIIYFSPCGAALHQISDVSEYIHVTRSLLTIDCFSFDARIDTATYITVDDKYLKVADFSLGTEGIPIPLVNSVDNDEPPSLEYSKRRFQYNDQVDISSVSRDFCSGCSCDGDCSDASKCECQQLSIEAMKRLPHNLQFDGHDELYESSEKQNKFLKLFFFRVPHYQNRLLSSKVISGLYECNDQCSCHRKSCYNRVVQNNIKYPMHVSLFNDDTYQLLFFLQIFKTAQSGWGVRALTDIPQSTFICTYVGAILTDDLADELRNADQYFADLDLKDTVELEKGREDHETDFGYGGDESDYDDEEGSDGDSGDDVMNKMVKRQDSSESGEETKRLTRQKRKQSKKSGKGGSVEKDDTTPRDSMEKDNIESKDEPVFNWDKYFEPFPLYVIDAKQRGNLGRFLNHSCDPNVHVQHVMYDTHDLRLPWVAFFTRKYVKAGDELTWDYQYTQDQTATTQLTCHCGAENCTGRLLKS”, which “soluble on expression in E. coli” value is on record?
**A.** The value was “not soluble”.

**Q.** For “MDRFMAGDLEVRCEVIYRRVKNPRIELRFDSLRLILPADFTGDPMEVLSSRSDWIQRKIHEFHEMLERASDMELEYRRDKELRSLVSGFLDHYSDVLGVEYGRVRFRRMRSRWGSCSSRGNLSFNTLLSHLPDRMVEYVVLHELAHLREMNHSPRFWGILESEMPDCTERRRMLRYYWARLYMEGLVDLEHHHHHH”, which “soluble on expression in E. coli” value is on record?
**A.** Its value is “soluble”.

**Q.** Which “soluble on expression in E. coli” value does the source give for “MDRKIVQLIHNFSGTEKLKAAVFSHDEQCFFDFVSFDELNSKLTGFLLFDSLEKLFKLVETIQQKRSWLYVDELWLINTATENQQLNEVSVWLVKKELAQVGVLTQLDTSLVKLLMASKNTDSALYNTYIKPVELQQFTQTPAPDNVNAEQSHLTLESTTDLNNSQLANTPALWEVEQTTQELLPTMDFSKFIDELDQITKNFSDLELEPLSFNEGFDEWNQE” here?
**A.** The value was “soluble”.

**Q.** Which “soluble on expression in E. coli” value does the source give for “MDRLDRKILYLLQENATLSVADIAKKVGLSTTPCWRRIQKLEEDGVIQRRVAVLSPEKVNAHVTVFVSIRTNTHSQEWLKRFSKIVQEFREVIEFYRMSGDIDYLLRVVVPNIEAYDLFYKKLIAKIDIRDVSSSFAMEQIKYTTELPLNYIKLHDKTSEQNS” here?
**A.** The value was “not soluble”.

**Q.** For “MDRLSYAIGDKAVLNNIRVQFQPGSVTALLGPNGAGKSTLLKALCQEIPSAQGSIKLGHCQLVDWPRAELAKSLAVLPQHASLTFPFTVDEVVAMGLYPLTLSQKEGQQLVTKWLAEVGVLHLARRSYPTLSGGEKQRVQLARVLTQLSQSPFPPILLLDEPTSALDLAQQHKVLALAKNLAHKHAYTVIVVLHDLNQAARYSDRVIVLKQGEIVSEGTPNDALSIDIIRQVWDYEPEFIPAPQGDYPLIF”, which “soluble on expression in E. coli” value is on record?
**A.** The value was “not soluble”.

**Q.** For “MDRVTRYPILGIPQAHRGTGLVLDGDTSYTYHLVCMGPEASGWGQDEPQTWPTDHRAQQGVQRQGVSYSVHAYTGQPSPRGLHSENREDEGWQVYRLGARDAHQGRPTWALRPEDGEDKEMKTYRLDAGDADPRRLCDLERERWAVIQGQAVRKSSTVATLQGTPDHGDPRTPGPPRSTPLEENVVDREQIDFLAARQQFLSLEQANKGAPHSSPARGTPAGTTPGASQAPKAFNKPHLANGHVVPIKPQVKGVVREENKVRAVPTWASVQVVDDPGSLASVESPGTPKETPIEREIRLAQEREADLREQRGLRQATDHQELVEIPTRPLLTKLSLITAPRRERGRPSLYVQRDIVQETQREEDHRREGLHVGRASTPDWVSEGPQPGLRRALSSDSILSPAPDARAADPAPEVRKVNRIPPDAYQPYLSPGTPQLEFSAFGAFGKPSSLSTAEAKAATSPKATMSPRHLSESSGKPLSTKQEASKPPRGCPQANRGVVRWEYFRLRPLRFRAPDEPQQAQVPHVWGWEVAGAPALRLQKSQSSDLLERERESVLRREQEVAEERRNALFPEVFSPTPDENSDQNSRSSSQASGITGSYSVSESPFFSPIHLHSNVAWTVEDPVDSAPPGQRKKEQWYAGINPSDGINSEVLEAIRVTRHKNAMAERWESRIYASEEDD”, which “soluble on expression in E. coli” value is on record?
**A.** The value was “not soluble”.

**Q.** For “MDSINTRIAEELSALPSGRVQPQQVAAAVALLDEGSTVPFIARYRKEVTGSLDDTQLRMLEERLRYLRELEERRGAILASIEEQGKLTPELARDIKLADTKTRLEDLYLPYKQKRRTKGQIALEAGLGALADALFDDPTLVPESEAARFVDAEKGFADVKAVLEGAKYILMERFAEDATLLDKLRVFMKNEATLTARVVPGKEQEGAKFSDYFEHDEPLKSAPSHRALAIFRGRNEGVLSASLKVGEEAPGTLHPCEVMIAERFGLSNQGRAADKWLAEVVRWTWKVKLYTHLETDLFGELRDGAEDEAISVFARNLHDLLLAAPAGPRATLGLDPGLRTGVKVAVVDATGKLLDTATVYPHAPKNQWDQTLAVLAALCAKHQVELIAIGNGTASRETDKLAGELIKKYPGMKLTKIMVSEAGASVYSASELAAKEFPELDVSLRGAVSIARRLQDPLAELVKIEPKSIGVGQYQHDVSQLKLARSLDAVVEDCVNAVGVDVNTASAALLARISGLNSTLAQNIVAHRDANGAFRTRDELKKVSRLGEKTFEQAAGFLRVMNGDNPLDASAVHPETYPLVQRIAADTERDIRSLIGDSAFLKRLDPKKFTDETFGLPTVTDILKELDKPGRDPRPEFKTAEFQEGVESLKDLKPGMVLEGVVTNVTNFGAFVDIGVHQDGLVHISALSEKFVKDPYEVVKAGDIVKVKVMEVDIPRNRVGLSMRMSDTPGEKVEGQRGGRPTGSGQPRQERGAPRGQSAPPANNAMAALFANAKQLKKKHHHHHH”, which “soluble on expression in E. coli” value is on record?
**A.** Its value is “soluble”.

**Q.** With “MDSKAIAERIKKLQAQQEHVRIGGKGTPRRKKKVIHKTAAADDKKLQSNLKKLSVTNIPGIEEVNMIKDDGTVIHFNNPKVQTSVPANTFSVTGSADNKQITEMLPGILNQLGPESLTHLKKLANNVTKLGPDGKGEDEDVPELVGDFDAASKNETKADEQ” as the sequence, how does the “soluble on expression in E. coli” value read?
**A.** The value was “soluble”.

**Q.** With “MDSNDLEASFTSRLPPEIVAALKRKSSRDPNSRFPRKLHMLLTYLASNPQLEEEIGLSWISDTEFKMKKKNVALVMGIKLNTLNVNLRDLAFEQLQHDKGGWTQWKRSGFTRNSVFEDPTQNDSPMHHHHHH” as the sequence, how does the “soluble on expression in E. coli” value read?
**A.** The value was “soluble”.

**Q.** Which “soluble on expression in E. coli” value does the source give for “MDSNLMSSVSTSAILGGENFADLFAESLKSQDMKSGEVISAEVVRVDHNFVVVNAGLKSEALIPLEEFLNDQGELEVQPGDFVSVAIDSLENGYGDTILSRDRAKRLSAWLQLEQALENGELVTGTITGKVKGGLTVMTNGIRAFLPGSLVDLRPVKDTTPYEGKTLEFKVIKLDRKRNNVVLSRRQVLEASMGEERQKLLETLHEGAVVKGVVKNITDYGAFVDLGGIDGLLHITDMAWRRVRHPSEVLQVGQEVEAKVLKFDQEKSRVSLGVKQLGEDPWVGLARRYPQGTRLFGKVTNLTDYGAFVEVEAGIEGLVHVSEMDWTNKNVDPRKVVTLGEEVEVMVLEIDEDRRRISLGMKQCRQNPWEEFATNFKRGDKVRGAIKSITDFGVFVGLPGGIDGLVHLSDLSWTESGEEAVRNFKKGDELEAVVLGIDTEKERISLGIKQLEGDPFNNFVATHDKGAVVPGTIKSVEPKGAVITLSVDVEGYLRASEISSGRVEDATTVLKAGENIEAMIVNIDRKARSIQLSIKARDNAETAETIQRMSEASASSGTTNLGALLKAKLDQQRNDGLEHHHHHH” here?
**A.** Its value is “not soluble”.

**Q.** Which “soluble on expression in E. coli” value does the source give for “MDTAGIRLTPKEIVSKLNEYIVGQNDAKRKVAIALRNRYRRSLLDEESKQEISPKNILMIGPTGVGKTEIARRMAKVVGAPFIKVEATKFTEVGYVGRDVESMVRDLVDVSVRLVKAQKKSLVQDEATAKANEKLVKLLVPSMKKKASQTNNPLESLFGGAIPNFGQNNEDEEEPPTEEIKTKRSEIKRQLEEGKLEKEKVRIKVEQDPGALGMLGTNQNQQMQEMMNQLMPKKKVEREVAVETARKILADSYADELIDQESANQEALELAEQMGIIFIDEIDKVATNNHNSGQDVSRQGVQRDILPILEGSVIQTKYGTVNTEHMLFIGAGAFHVSKPSDLIPELQGRFPIRVELDSLSVEDFVRILTEPKLSLIKQYEALLQTEEVTVNFTDEAITRLAEIAYQVNQDTDNIGARRLHTILEKMLEDLSFEAPSMPNAVVDITPQYVDDKLKSISTNKDLSAFIL” here?
**A.** The value was “not soluble”.

**Q.** With “MDTELMKLDVHVTAWSRTPSSSGFLNSVMISRDRDFEEFIINDRDGSVTSLGSYQNPSRGPDPLIFLDFRNFEPNYVYQLLLSQFHDHVLSEHIADQIGYTFGTCNSPTSTTDLDQESEEEE” as the sequence, how does the “soluble on expression in E. coli” value read?
**A.** Its value is “soluble”.

**Q.** For “MDTQDPLSQKYAISMLFFLLDRGNVKQFELLKIISSNMTIEKLSKILEEAGLINIKREFTGRKSYSFSLTPKGRLVAEQLKKAEEIAQKPSAEIEESVEKIELLLANEEAERIREWSFLLHINIMDDHITEEISGKSPRFFNIYIKRNGNGEFLLWCEQDNSYDCWHVKAAWTYPEVQKMMMHYKGKVKICHICGYENAEEGKFCTNCGTKLE”, which “soluble on expression in E. coli” value is on record?
**A.** The value was “not soluble”.

**Q.** Which “soluble on expression in E. coli” value does the source give for “MDVKMKGIVRVVPYDPEWKTEFLKIKAMIVDCAGDLIIDVVHVGSTAIEGLASKPIIDIDVVIDSYYVFPAVKDRLAKIGFEHEGNLGVEGREAFKRTFVDDFMPYHLYICPKDGKGYLEHIAFRNYLRDHPEAVKAYGELKMRLAEQFRTDITSYVNAKREFVQNVLKKINS” here?
**A.** The value was “soluble”.

**Q.** With “MDVLSGTQVTDPEQLIVNREEVDDIELKMAELLSDLERKVLALYLDGRSYQEISEELNRHVKSIDNALQRVKRKLEKYLEYREISL” as the sequence, how does the “soluble on expression in E. coli” value read?
**A.** The value was “not soluble”.

**Q.** For “MDVNPTLLFLKVPAQNAISTTFPYTGDPPYSHGTGTGYTMDTVNRTHQYSEKGRWTTNTETGAPQLNPIDGPLPEDNEPSG”, which “soluble on expression in E. coli” value is on record?
**A.** Its value is “soluble”.

**Q.** For “MDVRQSIHSAHAKTLDTQGLRNEFLVEKVFVADEYTMVYSHIDRIIVGGIMPITKTVSVGGEVGKQLGVSYFLERRELGVINIGGAGTITVDGQCYEIGHRDALYVGKGAKEVVFASIDTGTPAKFYYNCAPAHTTYPTKKVTPDEVSPVTLGDNLTSNRRTINKYFVPDVLETCQLSMGLTELAPGNLWNTMPCHTHERRMEVYFYFNMDDDACVFHMMGQPQETRHIVMHNEQAVISPSWSIHSGVGTKAYTFIWGMVGENQVFDDMDHVAVKDLR”, which “soluble on expression in E. coli” value is on record?
**A.** The value was “not soluble”.

**Q.** With “MDVVILDTGCANLSSVTYAVQRLGYTPVISRDPAVVLRADKLFMPGVGTAHAAMEQLRQRELIELIKSCTQPVLGICLGMQLLATSSEESGGITTLGMIDAPVKKMTDFGLPLPHMGWNQITAQAGNHLFRGIPDGTYFYFVHGYAMPICPNTIAQTNYGEPFTAAVEKDNFFGVQFHPERSGAAGAQLMKNFLEM” as the sequence, how does the “soluble on expression in E. coli” value read?
**A.** The value was “not soluble”.

From the DeepSol protein solubility set
